In article PMC11782079:

What follows are substances tested against FaRel2-Δ166–206 (Coprobacillus sp. D7) (assay: ITC; ATfaRel2 or variant in the syringe at 200-150 uM, FaRel2 in the cell at 15-20 uM; 25 °C; 25 mM HEPES pH 7.6, 300 mM NaCl, 2 mM MgCl2, 1 mM TCEP).

| Substance | Kd [µM] |
| --- | --- |
| ATfaRel2 antitoxin (wild type) (natural protein) | 3.3 |

Each substance was assayed against Coprobacillus sp. D7 FaRel2 toxin, catalytically impaired Y128F variant (Coprobacillus sp. D7) (assay: not given).

| Substance | stoichiometry N | Kd [µM] |
| --- | --- | --- |
| ATfaRel2 A50M (natural protein) | 1.1 |  |
| ATfaRel2 F59A (natural protein) | 0.99 | 2.15 |
| ATfaRel2 I45A (natural protein) | 0.91 | 0.868 |
| ATfaRel2 V43A (natural protein) | 0.97 |  |
| ATfaRel2 Y51A (natural protein) | 0.9 | 1.52 |
| ATfaRel2 Y54A (natural protein) | 0.92 | 8.75 |
| Coprobacillus sp. D7 ATfaRel2 antitoxin (natural protein) | 1.1 |  |
